From PMC6639327, “PLPP/CIN-mediated NEDD4-2 S448 dephosphorylation regulates neuronal excitability via GluA1 ubiquitination” (Cell Death & Disease, 2019)
Values belong to the molecule of their own block, whether it stands above or below them.

What was measured:
[1] = molecular target: Neuronal precursor cell expressed developmentally downregulated 4-2 (NEDD4-2) (mouse (endogenous in hippocampus)) (UniProt Q8CFI0); test: co-IP; mouse hippocampal tissue lysed in RIPA buffer with protease and phosphatase inhibitors; equal protein incubated with NEDD4-2, ubiquitin or GluA1 antibody and protein G sepharose at 4 °C overnight; western blot; WT, PLPP/CIN^-/- and PLPP/CIN^Tg mice, saline or KA (25 mg/kg, 2 h), control or NEDD4-2 siRNA
[2] = molecular target: T1, Neuronal precursor cell expressed developmentally downregulated 4-2 (NEDD4-2) (mouse (endogenous in hippocampus), UniProt Q8CFI0 1-1004); test: as above; conditions: partners not purified
T1 construct: NEDD4-2 E3 ubiquitin ligase, endogenous in mouse hippocampus; S222 and S328 in murine NEDD4-2; source: endogenous, mouse hippocampal tissue lysate (RIPA buffer)
T1 sequence (looked up): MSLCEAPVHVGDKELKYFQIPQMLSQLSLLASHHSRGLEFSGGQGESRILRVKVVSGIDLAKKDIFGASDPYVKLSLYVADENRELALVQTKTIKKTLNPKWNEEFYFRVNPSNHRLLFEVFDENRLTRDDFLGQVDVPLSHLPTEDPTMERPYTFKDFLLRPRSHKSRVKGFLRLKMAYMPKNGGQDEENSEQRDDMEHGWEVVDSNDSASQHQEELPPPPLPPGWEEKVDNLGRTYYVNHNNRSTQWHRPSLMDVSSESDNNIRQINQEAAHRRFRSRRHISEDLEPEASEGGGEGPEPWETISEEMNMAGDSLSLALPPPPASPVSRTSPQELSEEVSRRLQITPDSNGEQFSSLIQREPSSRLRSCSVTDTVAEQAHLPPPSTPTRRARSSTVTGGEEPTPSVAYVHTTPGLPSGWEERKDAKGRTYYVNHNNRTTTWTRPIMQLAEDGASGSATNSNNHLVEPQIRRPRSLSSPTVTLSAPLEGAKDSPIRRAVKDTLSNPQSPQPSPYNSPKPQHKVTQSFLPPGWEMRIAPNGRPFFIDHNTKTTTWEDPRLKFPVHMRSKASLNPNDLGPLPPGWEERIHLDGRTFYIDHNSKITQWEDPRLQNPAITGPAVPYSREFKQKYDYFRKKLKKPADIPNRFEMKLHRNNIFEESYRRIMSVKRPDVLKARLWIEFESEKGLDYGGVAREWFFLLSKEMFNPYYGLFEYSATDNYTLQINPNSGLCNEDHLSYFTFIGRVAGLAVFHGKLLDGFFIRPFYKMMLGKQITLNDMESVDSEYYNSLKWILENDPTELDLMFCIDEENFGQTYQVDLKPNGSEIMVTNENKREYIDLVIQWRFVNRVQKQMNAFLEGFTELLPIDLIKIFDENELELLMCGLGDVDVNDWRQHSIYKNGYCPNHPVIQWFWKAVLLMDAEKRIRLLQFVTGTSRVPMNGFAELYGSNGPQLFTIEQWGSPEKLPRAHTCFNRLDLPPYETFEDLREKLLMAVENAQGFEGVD

[3] = molecular target: T2, full-length recombinant human NEDD4-2, phosphorylated by SGK1 (human, UniProt Q96PU5 1-975, phosphorylated by incubation with 200 U/μl SGK1 and 100 μM ATP (S342 and S448 phosphorylation followed by western blot)); test: co-IP; in vitro with recombinant proteins: NEDD4-2 (10 ng/μl) phosphorylated with 200 U/μl SGK1 and 100 μM ATP in kinase assay buffer I at 30 °C for 1 h, then PLPP/CIN (10 ng/μl) added, 30 °C for 1 h; coprecipitation and western blot; conditions: both partners purified
T2 construct: human NEDD4-2, full-length recombinant protein (Abcam); SGK1 and ATP were still in the sample when PLPP/CIN was added; source: bought: Abcam; phosphorylated in vitro with SGK1 (SignalChem) and ATP
T2 sequence (looked up): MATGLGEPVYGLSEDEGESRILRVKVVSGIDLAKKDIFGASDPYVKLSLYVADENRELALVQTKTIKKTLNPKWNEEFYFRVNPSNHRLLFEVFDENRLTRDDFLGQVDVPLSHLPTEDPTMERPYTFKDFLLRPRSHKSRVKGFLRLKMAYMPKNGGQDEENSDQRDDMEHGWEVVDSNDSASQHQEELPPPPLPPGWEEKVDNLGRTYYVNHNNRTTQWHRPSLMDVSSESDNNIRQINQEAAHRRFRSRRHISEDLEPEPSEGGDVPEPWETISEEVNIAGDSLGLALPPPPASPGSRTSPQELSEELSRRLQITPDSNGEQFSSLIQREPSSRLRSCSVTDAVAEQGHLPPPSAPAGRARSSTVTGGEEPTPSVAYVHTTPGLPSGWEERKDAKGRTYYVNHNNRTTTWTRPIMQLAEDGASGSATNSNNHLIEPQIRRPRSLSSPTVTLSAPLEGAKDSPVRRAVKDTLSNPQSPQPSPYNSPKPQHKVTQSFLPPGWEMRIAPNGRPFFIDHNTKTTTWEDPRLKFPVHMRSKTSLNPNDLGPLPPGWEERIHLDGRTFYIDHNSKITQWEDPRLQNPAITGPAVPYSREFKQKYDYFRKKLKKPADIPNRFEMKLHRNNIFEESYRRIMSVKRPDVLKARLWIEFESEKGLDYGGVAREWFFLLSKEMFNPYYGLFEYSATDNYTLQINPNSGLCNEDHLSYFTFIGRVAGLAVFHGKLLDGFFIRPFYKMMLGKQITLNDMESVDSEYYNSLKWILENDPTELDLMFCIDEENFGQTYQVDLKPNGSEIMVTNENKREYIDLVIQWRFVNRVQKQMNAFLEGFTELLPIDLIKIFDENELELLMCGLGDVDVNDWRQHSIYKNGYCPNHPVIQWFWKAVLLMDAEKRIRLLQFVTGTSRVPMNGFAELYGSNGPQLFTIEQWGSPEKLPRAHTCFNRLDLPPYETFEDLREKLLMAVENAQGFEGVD

- fold of the binding in WT mice [1]: 1.4 fold
Molecule: PLPP/CIN in PLPP/CIN transgenic (PLPP/CIN^Tg) mice (from UniProt P60487 1-292)

- fold of control level (2 h after KA, WT mice) [2]: ~1.4 fold
B1: Pyridoxal-5'-phosphate phosphatase/chronophin (PLPP/CIN) (enzyme, mouse (endogenous in hippocampus), UniProt P60487 1-292, looked up)
chain: MARCERLRGAALRDVLGQAQGVLFDCDGVLWNGERIVPGAPELLQRLARAGKNTLFVSNNSRRARPELALRFARLGFAGLRAEQLFSSALCAARLLRQRLSGPPDASGAVFVLGGEGLRAELRAAGLRLAGDPGEDPRVRAVLVGYDEQFSFSRLTEACAHLRDPDCLLVATDRDPWHPLSDGSRTPGTGSLAAAVETASGRQALVVGKPSPYMFQCITEDFSVDPARTLMVGDRLETDILFGHRCGMTTVLTLTGVSSLEEAQAYLTAGQRDLVPHYYVESIADLMEGLED
notes: Pyridoxal-5'-phosphate phosphatase/chronophin, endogenous in the hippocampus of WT mice; source: endogenous, mouse hippocampal tissue lysate (RIPA buffer)

- binding result [3]: binds
B2: recombinant human PLPP/CIN protein (enzyme, UniProt Q96GD0 1-296, looked up)
chain: MARCERLRGAALRDVLGRAQGVLFDCDGVLWNGERAVPGAPELLERLARAGKAALFVSNNSRRARPELALRFARLGFGGLRAEQLFSSALCAARLLRQRLPGPPDAPGAVFVLGGEGLRAELRAAGLRLAGDPSAGDGAAPRVRAVLVGYDEHFSFAKLREACAHLRDPECLLVATDRDPWHPLSDGSRTPGTGSLAAAVETASGRQALVVGKPSPYMFECITENFSIDPARTLMVGDRLETDILFGHRCGMTTVLTLTGVSRLEEAQAYLAAGQHDLVPHYYVESIADLTEGLED
notes: human pyridoxal-5'-phosphate phosphatase/chronophin, recombinant protein (Abcam); The sentence reads 'full-length recombinant human NEDD4-2 (Abcam, UK) and human PLPP/CIN proteins'; whether 'full-length' also covers PLPP/CIN is not clear; source: bought: Abcam
